Reference: publication PMC9763339

Target: RBM5-Myc (UniProt P52756)
Sequence of UniProt P52756 (P52756 whole entry): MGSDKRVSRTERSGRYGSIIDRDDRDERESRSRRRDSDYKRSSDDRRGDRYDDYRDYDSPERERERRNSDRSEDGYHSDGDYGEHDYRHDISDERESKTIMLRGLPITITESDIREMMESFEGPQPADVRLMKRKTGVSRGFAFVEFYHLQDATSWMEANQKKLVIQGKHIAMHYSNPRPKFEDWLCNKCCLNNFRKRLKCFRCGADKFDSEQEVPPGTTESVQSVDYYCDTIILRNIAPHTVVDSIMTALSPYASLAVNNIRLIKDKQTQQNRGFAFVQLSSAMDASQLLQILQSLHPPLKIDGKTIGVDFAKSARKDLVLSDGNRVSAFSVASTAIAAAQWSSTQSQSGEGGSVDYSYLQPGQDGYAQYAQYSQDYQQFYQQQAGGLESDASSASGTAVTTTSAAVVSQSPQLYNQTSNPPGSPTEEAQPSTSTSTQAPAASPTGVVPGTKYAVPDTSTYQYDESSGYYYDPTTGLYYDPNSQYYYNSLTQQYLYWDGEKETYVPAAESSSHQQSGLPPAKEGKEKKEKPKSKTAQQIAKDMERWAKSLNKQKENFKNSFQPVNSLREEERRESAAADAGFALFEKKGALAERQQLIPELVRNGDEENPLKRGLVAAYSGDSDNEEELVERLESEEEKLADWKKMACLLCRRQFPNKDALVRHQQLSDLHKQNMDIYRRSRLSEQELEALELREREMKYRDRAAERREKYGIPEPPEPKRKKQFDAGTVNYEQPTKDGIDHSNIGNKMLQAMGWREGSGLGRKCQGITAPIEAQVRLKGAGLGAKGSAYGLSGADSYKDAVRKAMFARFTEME

## InlP-HA (in HeLa cells) (natural protein)
  percentage of HeLa cells with aberrantly shaped nuclei (RBM5-induced cell death) when InlP is co-expressed with RBM5: 13%
